The values that follow are results of earlier work, collected in paper PMC10650157.

The target of series [1] is apo-lactoferrin (Homo sapiens) (UniProt P02788).
In series [2] the target is apo-transferrin (Homo sapiens) (UniProt P02787).
UniProt P02787, sequence (P02787 20-698): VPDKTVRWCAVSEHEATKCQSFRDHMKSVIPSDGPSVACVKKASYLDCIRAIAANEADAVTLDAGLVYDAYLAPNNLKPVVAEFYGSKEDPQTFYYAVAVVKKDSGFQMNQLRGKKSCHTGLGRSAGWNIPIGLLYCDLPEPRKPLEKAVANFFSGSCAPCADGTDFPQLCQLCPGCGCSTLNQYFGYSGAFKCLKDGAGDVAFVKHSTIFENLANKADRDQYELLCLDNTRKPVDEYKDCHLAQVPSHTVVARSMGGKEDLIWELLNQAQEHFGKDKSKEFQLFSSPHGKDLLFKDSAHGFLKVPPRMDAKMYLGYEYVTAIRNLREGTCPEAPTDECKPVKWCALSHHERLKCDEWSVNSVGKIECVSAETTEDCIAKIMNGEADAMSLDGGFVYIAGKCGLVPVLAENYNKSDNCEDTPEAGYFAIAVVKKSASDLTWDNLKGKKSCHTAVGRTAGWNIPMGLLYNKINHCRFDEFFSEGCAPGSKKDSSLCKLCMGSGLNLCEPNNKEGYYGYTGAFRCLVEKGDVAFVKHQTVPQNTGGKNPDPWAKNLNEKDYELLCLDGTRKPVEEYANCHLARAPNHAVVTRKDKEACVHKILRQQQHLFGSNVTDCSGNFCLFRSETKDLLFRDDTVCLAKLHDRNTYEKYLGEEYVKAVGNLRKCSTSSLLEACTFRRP

UniProt P02788, sequence (P02788 20-710): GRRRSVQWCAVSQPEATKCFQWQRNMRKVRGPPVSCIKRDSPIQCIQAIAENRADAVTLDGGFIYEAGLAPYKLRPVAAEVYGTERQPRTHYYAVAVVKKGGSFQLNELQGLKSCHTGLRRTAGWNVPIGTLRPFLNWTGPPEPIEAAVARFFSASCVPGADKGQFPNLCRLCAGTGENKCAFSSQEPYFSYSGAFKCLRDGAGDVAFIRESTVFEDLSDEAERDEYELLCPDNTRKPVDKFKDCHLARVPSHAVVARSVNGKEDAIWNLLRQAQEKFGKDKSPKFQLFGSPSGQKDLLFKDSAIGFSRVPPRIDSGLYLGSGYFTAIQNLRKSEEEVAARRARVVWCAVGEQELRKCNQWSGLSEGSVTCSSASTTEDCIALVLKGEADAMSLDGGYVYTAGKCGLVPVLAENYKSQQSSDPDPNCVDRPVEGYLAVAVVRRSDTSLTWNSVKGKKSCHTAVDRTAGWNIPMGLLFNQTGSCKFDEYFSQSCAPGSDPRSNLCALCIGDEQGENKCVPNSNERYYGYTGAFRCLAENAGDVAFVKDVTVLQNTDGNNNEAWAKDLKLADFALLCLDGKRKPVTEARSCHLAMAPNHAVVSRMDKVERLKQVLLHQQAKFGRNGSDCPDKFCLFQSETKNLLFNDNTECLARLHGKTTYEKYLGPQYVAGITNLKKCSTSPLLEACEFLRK

By Kd is commonly meant the constant that tells how readily two partners part at equilibrium. For Ceruloplasmin (from UniProt P00450), the equilibrium dissociation constant (Kd) in series [1] is 7.4 µM; in series [2] it was 51.3 µM.
